PMC4730555

Key:
[1] = target: ectodomain of RGMB (eRGMB), wild type (human) (UniProt Q6NW40); assay: AUC
[2] = target: ectodomain of RGMB (eRGMB), wild type (human) (UniProt Q6NW40); assay: multiangle light scattering
[3] = target: eRGMB-P206N (human) (UniProt Q6NW40); assay: AUC
[4] = target: ectodomain of RGMB (eRGMB), wild type (human) (UniProt Q6NW40); assay: AUC; remark: listed apart in the source
[5] = target: RGMA, full-length ectodomain (human) (UniProt Q96B86); assay: SPR
[6] = target: RGMC, full-length ectodomain (human) (UniProt Q6ZVN8); assay: SPR
[7] = target: ectodomain of RGMB (eRGMB), wild type (human) (UniProt Q6NW40); assay: SPR

Sequence of UniProt Q96B86 (Q96B86 48-424): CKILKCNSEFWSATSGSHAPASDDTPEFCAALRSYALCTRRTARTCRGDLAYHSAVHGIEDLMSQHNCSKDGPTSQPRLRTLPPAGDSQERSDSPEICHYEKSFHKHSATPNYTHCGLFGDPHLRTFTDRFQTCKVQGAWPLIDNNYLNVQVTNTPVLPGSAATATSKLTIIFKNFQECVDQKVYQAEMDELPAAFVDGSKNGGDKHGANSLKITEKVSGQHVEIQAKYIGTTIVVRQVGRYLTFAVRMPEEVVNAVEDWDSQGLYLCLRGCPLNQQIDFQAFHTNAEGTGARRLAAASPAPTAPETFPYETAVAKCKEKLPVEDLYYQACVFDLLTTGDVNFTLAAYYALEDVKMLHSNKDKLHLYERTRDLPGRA
Sequence of UniProt Q6ZVN8 (Q6ZVN8 36-400): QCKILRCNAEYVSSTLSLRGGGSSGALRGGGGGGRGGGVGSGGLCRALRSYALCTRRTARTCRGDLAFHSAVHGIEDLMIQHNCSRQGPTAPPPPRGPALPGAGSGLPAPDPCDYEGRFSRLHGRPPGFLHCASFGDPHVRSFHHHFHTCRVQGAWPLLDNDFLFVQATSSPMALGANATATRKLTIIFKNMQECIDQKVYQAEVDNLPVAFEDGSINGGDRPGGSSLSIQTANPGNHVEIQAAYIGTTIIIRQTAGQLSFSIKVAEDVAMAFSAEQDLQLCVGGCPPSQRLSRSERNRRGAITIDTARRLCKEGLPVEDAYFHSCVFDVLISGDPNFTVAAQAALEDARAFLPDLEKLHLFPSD

NEO1_FN56M (from UniProt P97798 883-1136) (domain or fragment)
stoichiometry N [1]: 1
stoichiometry N [2]: 1
stoichiometry N [3]: 1
stoichiometry N [4]: 1

full-length DCC ectodomain (from UniProt P43146 26-1097) (domain or fragment)
interaction relative to the equivalent NEO1 construct [5]: 0.001 fold
interaction relative to the equivalent NEO1 construct [6]: 0.001 fold
interaction relative to the equivalent NEO1 construct [7]: 0.001 fold
